According to article PMC11629876:

Key:
Test in all cases: ELISA; dose response: host component coated, recombinant protein added at increasing concentrations, 2 h 37°C; detected with mouse antiserum; KD by non-linear regression, one site-specific binding (GraphPad Prism)
[1] = biological target: cellular fibronectin (human foreskin fibroblasts) (human)
[2] = biological target: integrin αVβ5 (UniProt P06756)
[3] = biological target: vitronectin (human plasma) (human)
[4] = biological target: integrin α5β1 (UniProt P08648)
Chain of integrin α5β1 (P08648 42-1049, chain 1 of 2): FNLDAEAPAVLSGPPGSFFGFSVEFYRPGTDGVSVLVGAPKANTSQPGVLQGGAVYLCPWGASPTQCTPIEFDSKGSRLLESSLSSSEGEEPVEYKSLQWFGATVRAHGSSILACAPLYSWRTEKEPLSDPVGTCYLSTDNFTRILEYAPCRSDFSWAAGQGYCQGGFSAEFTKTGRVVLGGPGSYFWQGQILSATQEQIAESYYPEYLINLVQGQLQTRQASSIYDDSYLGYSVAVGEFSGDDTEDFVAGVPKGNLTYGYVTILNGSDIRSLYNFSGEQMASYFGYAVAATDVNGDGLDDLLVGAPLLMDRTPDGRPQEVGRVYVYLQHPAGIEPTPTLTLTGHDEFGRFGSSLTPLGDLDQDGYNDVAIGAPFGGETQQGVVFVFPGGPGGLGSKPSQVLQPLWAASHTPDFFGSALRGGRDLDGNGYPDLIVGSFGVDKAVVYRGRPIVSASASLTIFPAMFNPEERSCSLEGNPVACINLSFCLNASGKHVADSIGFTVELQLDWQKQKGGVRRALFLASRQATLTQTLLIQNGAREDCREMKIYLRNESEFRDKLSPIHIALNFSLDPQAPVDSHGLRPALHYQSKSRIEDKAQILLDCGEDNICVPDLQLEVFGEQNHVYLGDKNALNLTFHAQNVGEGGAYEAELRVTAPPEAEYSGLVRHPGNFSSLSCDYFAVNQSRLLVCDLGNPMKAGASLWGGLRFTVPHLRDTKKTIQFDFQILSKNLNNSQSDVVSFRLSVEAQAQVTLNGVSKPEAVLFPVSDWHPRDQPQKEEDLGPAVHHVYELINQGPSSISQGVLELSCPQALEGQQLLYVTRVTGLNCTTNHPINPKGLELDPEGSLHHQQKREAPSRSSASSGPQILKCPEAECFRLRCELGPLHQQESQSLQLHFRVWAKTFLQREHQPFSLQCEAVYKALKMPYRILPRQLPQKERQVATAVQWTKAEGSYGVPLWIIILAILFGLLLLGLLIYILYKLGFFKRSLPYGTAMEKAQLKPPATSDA
Chain of integrin α5β1 (P05556 21-728, chain 2 of 2, further chain): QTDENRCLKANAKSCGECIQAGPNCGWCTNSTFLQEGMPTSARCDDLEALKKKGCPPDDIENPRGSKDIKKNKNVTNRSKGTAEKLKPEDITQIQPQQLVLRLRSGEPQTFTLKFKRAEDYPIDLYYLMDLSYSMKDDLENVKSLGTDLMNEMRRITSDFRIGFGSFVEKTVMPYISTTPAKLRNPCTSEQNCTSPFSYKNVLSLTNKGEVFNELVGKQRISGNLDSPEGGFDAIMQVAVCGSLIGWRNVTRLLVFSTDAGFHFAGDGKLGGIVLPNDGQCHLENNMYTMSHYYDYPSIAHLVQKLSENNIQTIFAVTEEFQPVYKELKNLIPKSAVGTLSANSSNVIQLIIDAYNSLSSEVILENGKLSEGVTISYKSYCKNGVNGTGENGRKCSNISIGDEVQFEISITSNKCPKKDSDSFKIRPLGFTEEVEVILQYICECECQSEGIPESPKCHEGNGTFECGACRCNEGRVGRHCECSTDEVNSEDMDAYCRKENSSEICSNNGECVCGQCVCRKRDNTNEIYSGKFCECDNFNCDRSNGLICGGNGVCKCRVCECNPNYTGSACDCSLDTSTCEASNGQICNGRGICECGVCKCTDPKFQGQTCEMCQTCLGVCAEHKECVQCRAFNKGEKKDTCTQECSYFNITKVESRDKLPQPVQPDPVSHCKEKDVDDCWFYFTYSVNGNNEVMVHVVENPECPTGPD

[5] = biological target: integrin αVβ1 (UniProt P06756)
Chain of integrin αVβ1 (P06756 31-1048, chain 1 of 2): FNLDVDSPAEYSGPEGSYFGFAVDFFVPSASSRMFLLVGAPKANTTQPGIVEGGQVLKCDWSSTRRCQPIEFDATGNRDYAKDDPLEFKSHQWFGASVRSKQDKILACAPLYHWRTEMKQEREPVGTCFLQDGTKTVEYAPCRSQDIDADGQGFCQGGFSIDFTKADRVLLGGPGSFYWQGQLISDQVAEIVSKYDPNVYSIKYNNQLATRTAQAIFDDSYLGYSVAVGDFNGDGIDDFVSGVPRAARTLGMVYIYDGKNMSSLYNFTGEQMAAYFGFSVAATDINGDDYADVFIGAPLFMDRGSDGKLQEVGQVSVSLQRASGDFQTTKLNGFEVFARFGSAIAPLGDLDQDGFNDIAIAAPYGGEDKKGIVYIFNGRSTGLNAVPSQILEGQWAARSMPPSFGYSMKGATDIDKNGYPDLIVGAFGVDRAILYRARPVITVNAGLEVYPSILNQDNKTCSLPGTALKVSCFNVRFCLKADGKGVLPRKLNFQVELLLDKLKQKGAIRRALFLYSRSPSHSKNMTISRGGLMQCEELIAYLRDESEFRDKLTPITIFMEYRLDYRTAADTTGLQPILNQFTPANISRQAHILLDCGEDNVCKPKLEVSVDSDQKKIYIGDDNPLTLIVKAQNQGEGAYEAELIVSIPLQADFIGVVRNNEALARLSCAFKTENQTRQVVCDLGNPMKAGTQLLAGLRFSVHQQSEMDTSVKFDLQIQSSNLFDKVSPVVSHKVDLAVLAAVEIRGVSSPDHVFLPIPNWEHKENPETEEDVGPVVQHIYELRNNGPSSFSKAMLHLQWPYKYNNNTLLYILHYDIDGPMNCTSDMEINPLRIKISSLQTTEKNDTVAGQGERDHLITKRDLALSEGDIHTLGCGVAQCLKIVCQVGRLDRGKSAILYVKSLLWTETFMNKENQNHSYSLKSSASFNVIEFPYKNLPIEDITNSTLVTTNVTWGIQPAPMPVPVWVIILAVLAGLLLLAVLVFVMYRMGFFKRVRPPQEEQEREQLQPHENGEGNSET
Chain of integrin αVβ1 (P05556 21-728, chain 2 of 2, further chain): as the sequence (P05556 21-728, chain 2 of 2, further chain) above

[6] = biological target: plasminogen (human plasma) (human)
[7] = biological target: integrin αVβ3 (UniProt P06756)
[8] = biological target: plasma fibronectin (human plasma) (human)
[9] = biological target: integrin αVβ6 (UniProt P06756)
[10] = biological target: integrin α8β1 (UniProt P53708)
[11] = biological target: collagen I (rat tail) (rat) (UniProt P02454)
Chain of collagen I (rat tail) (rat) (P02454 152-1207, chain 1 of 2): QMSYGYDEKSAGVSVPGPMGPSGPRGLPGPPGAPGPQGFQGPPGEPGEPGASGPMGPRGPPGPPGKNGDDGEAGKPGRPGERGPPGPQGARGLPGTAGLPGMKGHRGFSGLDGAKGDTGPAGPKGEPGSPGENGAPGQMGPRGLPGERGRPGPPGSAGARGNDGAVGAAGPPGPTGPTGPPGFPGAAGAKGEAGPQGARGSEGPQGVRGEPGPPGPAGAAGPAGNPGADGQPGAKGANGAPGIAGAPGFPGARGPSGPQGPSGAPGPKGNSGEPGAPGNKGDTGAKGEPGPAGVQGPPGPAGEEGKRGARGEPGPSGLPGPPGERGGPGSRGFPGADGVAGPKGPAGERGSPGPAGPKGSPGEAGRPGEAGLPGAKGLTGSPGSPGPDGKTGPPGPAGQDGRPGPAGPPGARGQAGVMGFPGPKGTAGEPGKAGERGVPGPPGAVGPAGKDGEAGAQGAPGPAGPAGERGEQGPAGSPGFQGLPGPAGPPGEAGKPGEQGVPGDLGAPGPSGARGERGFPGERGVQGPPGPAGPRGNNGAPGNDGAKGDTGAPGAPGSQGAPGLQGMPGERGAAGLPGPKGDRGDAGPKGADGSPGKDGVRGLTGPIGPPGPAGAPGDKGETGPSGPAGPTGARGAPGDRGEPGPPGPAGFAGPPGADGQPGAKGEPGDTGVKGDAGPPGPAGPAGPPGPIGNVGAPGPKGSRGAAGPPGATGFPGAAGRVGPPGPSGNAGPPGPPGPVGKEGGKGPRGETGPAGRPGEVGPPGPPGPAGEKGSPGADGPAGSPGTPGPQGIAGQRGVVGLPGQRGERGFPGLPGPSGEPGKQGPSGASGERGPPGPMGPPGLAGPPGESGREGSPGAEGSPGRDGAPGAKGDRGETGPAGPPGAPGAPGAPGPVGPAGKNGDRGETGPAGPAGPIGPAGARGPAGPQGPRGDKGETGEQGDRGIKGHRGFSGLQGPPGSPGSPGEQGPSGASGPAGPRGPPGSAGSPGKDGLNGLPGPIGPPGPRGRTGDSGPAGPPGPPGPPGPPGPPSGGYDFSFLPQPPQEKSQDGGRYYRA
Chain of collagen I (rat tail) (rat) (P02466 86-1125, chain 2 of 2, further chain): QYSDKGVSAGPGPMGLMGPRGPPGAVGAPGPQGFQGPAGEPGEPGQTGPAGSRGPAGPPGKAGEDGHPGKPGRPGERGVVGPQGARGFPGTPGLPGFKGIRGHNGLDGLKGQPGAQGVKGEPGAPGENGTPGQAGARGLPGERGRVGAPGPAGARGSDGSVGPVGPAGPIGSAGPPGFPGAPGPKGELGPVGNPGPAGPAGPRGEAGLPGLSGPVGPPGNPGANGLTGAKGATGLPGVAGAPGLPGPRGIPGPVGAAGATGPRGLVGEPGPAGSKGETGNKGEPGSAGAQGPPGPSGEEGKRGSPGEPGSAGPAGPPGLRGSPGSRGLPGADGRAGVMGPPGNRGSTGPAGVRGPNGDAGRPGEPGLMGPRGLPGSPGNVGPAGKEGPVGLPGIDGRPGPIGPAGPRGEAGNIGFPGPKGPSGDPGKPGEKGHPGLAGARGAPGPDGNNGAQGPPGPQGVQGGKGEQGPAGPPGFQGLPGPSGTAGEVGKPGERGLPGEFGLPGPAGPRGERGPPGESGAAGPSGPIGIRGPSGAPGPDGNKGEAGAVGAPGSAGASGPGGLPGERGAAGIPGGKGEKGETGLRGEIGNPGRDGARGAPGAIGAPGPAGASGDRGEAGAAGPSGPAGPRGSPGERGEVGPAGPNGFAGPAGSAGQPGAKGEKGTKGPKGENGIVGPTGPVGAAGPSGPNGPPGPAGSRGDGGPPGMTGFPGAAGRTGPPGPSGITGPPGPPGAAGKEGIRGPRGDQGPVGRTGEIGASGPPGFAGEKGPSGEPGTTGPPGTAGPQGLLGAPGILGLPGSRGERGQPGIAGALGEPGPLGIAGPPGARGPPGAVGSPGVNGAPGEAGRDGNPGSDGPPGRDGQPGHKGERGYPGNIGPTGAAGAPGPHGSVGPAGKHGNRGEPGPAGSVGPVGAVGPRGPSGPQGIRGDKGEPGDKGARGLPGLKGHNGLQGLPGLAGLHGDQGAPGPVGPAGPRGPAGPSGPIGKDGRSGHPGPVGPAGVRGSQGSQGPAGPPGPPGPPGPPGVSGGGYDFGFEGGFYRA

Substance	Kd [1]	Kd [2]	Kd [3]	Kd [4]	Kd [5]	Kd [6]	Kd [7]	Kd [8]	Kd [9]	Kd [10]	Kd [11]
recombinant LIC11505 (rLIC11505), leucine-rich repeat protein of Leptospira interrogans serovar Copenhageni (natural protein)	20.1 nM	109 nM	64.8 nM	73.4 nM	134 nM	24.2 nM	152 nM	51.1 nM	74.9 nM	191 nM	80 nM
recombinant LIC11051 (rLIC11051), leucine-rich repeat protein of Leptospira interrogans serovar Copenhageni (natural protein)						42.6 nM					
